Data on 5 molecules can be found in PMC9873573, “Cryo-EM structure of the respiratory I + III2 supercomplex from Arabidopsis thaliana at 2 Å resolution” (Nature Plants, 2022).

First the molecules themselves.
T1: complex I, FMN / NADH site (51 kDa subunit), in the I + III2 supercomplex (Arabidopsis thaliana, UniProt Q9FNN5)
T1 construct: gene At5g08530; native supercomplex; tested as whole I + III2 assembly of 68 subunits
T1 sequence (Q9FNN5 31-486): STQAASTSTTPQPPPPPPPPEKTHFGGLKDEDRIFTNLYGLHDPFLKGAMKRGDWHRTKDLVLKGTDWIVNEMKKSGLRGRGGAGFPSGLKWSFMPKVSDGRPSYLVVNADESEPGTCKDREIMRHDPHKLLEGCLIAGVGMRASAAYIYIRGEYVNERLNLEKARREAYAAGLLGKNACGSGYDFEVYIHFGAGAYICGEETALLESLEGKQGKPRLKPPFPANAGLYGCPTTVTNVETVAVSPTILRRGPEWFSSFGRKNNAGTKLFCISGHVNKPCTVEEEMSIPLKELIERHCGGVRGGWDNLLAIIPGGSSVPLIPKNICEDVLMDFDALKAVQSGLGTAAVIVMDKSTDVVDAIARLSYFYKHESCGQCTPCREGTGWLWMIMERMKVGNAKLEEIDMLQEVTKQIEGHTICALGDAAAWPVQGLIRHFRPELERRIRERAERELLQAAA

T2: mitochondrial processing peptidase subunit MPP-α-1 of complex III (Arabidopsis thaliana (endogenous in …, UniProt Q9ZU25 60-503))
T2 construct: MPP-α, isoform 1 (the dominant isoform, fitted to the map), subunit of Arabidopsis thaliana complex III
T2 sequence (looked up): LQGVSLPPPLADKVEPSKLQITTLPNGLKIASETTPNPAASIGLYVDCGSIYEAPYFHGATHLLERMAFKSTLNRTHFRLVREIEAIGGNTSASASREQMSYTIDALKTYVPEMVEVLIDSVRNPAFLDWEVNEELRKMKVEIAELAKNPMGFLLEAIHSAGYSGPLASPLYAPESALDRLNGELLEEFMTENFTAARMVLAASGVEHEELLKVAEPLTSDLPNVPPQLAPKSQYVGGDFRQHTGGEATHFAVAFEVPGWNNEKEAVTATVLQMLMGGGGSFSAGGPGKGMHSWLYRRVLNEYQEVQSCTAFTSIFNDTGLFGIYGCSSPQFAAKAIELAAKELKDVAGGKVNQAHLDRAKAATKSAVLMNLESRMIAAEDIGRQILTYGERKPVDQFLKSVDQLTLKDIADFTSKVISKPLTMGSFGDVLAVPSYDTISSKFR

T3: mitochondrial processing peptidase subunit MPP-β of complex III (Arabidopsis thaliana (endogenous in …, UniProt Q42290 79-531))
T3 construct: MPP-β, subunit of Arabidopsis thaliana complex III
T3 sequence (looked up): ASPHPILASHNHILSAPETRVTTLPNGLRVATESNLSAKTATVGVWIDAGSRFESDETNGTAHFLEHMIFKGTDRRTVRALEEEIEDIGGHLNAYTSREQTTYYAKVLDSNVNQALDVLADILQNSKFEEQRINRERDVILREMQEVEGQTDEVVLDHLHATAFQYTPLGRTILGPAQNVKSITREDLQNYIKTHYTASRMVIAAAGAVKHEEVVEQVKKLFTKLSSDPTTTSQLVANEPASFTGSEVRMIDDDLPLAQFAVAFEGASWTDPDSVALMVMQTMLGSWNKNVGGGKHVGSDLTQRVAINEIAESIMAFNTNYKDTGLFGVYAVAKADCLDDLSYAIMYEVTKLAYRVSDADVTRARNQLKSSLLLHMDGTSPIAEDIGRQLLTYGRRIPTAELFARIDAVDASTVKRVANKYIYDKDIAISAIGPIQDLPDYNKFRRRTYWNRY

T4: complex I core subunit ND5 (Arabidopsis thaliana (endogenous in …, UniProt P29388 1-669))
T4 sequence (looked up): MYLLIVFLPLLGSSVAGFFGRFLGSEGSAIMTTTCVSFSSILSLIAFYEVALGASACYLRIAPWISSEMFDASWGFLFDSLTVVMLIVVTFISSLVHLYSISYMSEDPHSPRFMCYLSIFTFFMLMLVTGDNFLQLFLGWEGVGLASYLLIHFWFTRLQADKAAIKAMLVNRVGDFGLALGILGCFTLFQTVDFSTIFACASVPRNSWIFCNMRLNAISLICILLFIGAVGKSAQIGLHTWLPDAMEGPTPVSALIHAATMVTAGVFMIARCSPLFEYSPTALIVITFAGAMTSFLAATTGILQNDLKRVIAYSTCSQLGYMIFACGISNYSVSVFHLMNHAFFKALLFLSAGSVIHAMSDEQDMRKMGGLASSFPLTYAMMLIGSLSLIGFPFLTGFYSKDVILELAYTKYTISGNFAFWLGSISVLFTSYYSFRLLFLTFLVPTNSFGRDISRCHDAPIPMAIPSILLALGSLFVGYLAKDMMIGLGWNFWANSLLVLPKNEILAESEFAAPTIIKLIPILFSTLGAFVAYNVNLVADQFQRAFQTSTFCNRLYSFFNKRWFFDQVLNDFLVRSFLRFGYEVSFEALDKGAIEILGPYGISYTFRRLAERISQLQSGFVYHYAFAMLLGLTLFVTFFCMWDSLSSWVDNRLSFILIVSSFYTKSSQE

B1: complex I subunit B22 (natural protein, UniProt Q945M1 1-117, looked up)
chain: MSGVSTAAYFARRAAQKERVRILYRRALKDTLNWAVHRHIFYRDASDLREKFNVNQDVEDVDRIDKLIAHGEAEYNKWRHPDPYIVPWAPGGSKFCRNPTPPAGIEIVYNYGLEDNP
notes: accessory subunit B22 of Arabidopsis thaliana mitochondrial complex I (membrane arm)
B2: complex III subunit QCR8-1 (natural protein, UniProt Q9SG91 1-72, looked up)
chain: MGKQPVKLKAVVYALSPFQQKIMTGLWKDLPEKIHHKVSENWISATLLVTPVVGTYWYAQYFKEQEKLEHRF
notes: QCR8, isoform 1 (the dominant isoform, fitted to the map), accessory subunit of Arabidopsis thaliana complex III
B3: complex III subunit QCR6-1 (natural protein, UniProt Q0WWE3 1-69, looked up)
chain: MADDEVVDPKKYLEESCKPKCVKPLLEYQACVKRIQGDDSGHKHCTGQYFDYWQCIDKCVAPKLFAKLK
notes: QCR6, isoform 1 (the dominant isoform, fitted to the map), accessory subunit of Arabidopsis thaliana complex III
B4: complex I subunit B14.7 (natural protein, UniProt O48528 1-159, looked up)
chain: MDPAEMRYLEEEDGPLMKTIKGSITGFGAGTIYGTILATWKDVPRVERNVALPGLIRTLKMMGTHGLTFAAIGGVYIGVEQLVQNFRSKRDFYNGAIGGFVAGASVLGYRARSIPTAIAAGATLAVTSALIDSGGQTTRVDNGREYYPYTVEKRAEADS
notes: subunit B14.7 of Arabidopsis thaliana mitochondrial complex I (membrane arm); absent from the earlier structures of free plant complex I; also called B14.7 kDa subunit

The target in assay [1] is T1, complex I, FMN / NADH site (51 kDa subunit), in the I + III2 supercomplex. Put plainly: cryo-EM structure, […] Å. Type of assay: binding. The following applies: co-purified.
In assay [2] the target is T2, mitochondrial processing peptidase …. The assay can be described thus: cryo-EM structure; native I + III2 supercomplex isolated from digitonin-solubilised Arabidopsis mitochondria (sucrose gradient, Superose 6 in GDN); 30 mM Tris-HCl pH 7.4, 60 mM NaCl, 0.02% GDN; 2.36 Å for the whole supercomplex, 2.03 Å after multibody refinement, 1.9 Å after density modification. The following applies: both partners purified.

Assay [3] concerns the target T3, mitochondrial processing peptidase …. Described as above. The following applies: both partners purified.
The assay “complex I subunit B14.7” deals with B4. The assay is described as above. The following applies: both partners purified.
Assay [4] has as its target T4, complex I core subunit ND5. Described as above. The following applies: both partners purified.

Take `Cc1cc2nc3c(=O)[nH]c(=O)nc-3n(C[C@H](O)[C@H](O)[C@H](O)COP(=O)(O)O)c2cc1C` [FMN]: the “cryo-EM structure, 2 Å” value in assay [1] is reported as “Complex I: FMN (Flavin mononucleotide), N1a, N1b, N2, N3”.

On to B1, for which the binding result in assay [2] and in assay [3] was “binds” in each case.

In the case of B2, the binding result with complex I subunit B14.7 was “binds”.

With B3, the binding result with complex I subunit B14.7 is “binds”.

For the molecule B4, the binding result in assay [4] is listed as “binds”.
